Data from the supplement of paper PMC12764529.
± gives the half width of the 95% confidence interval.

Key:
[1] = folding stability dG unfold from trypsin proteolysis; higher = more stable
Outline: (§1)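 Digests were run with trypsin and chymotrypsin at 11 concentrations in threefold dilutions, plus a no-protease condition, on designed mini-proteins in a PA-tagged cDNA display construct. The mini-proteins were under 80 residues, had no cysteine, and were kept only when AlphaFold2 dimer inter-PAE was above 15. After sequencing, Bayesian fitting of the counts gave K50, from which unfolding free energy was derived against a sequence-predicted unfolded-state K50 and a shared folded-state K50, per protease or combined.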

[2] = folding stability dG unfold from chymotrypsin proteolysis; higher = more stable
Outline: as §1

[3] = folding stability dG unfold (combined trypsin and chymotrypsin); higher = more stable
Outline: as §1

Sequence	folding stability dG unfold [1]	folding stability dG unfold [2]	folding stability dG unfold [3]
SAGGSAGGAPPDLKVTVKPTPGPGTGQRYTVVVELDEGGVLPFPFSFASPSEVEKAAKAIAALLSAGGSAGG [r6_996_TrMRF]	1.02 ± 0.056 kcal/mol	1.57 ± 0.14 kcal/mol	1.31 ± 0.14 kcal/mol
SAGGSAGGATTEINLPLKVPGSGVTITKMTYDPNKDVYFVTATFPDGTKKTIKVKSLEELKKLLSAGGSAGG [r6_548_JUSTAS]	3.83 ± 0.24 kcal/mol	2.52 ± 0.046 kcal/mol	3.11 ± 0.15 kcal/mol
SAGGSAGGAVVKLPGNTVMTIDPSTGIAYVTDPSGKVTKYTLTKFPDKTLWEEEPVEEIPSDLLSAGGSAGG [r6_324_JUSTAS]	1.53 ± 0.09 kcal/mol	1.44 ± 0.16 kcal/mol	1.55 ± 0.23 kcal/mol
SAGGSAGGDAKTFEVEGMTVFVDPETGLAVAEFPDGYLALGRIEVFGPGVAKVDLEIFPLPPGLSAGGSAGG [r6_670_TrMRF]	1.74 ± 0.11 kcal/mol	1.53 ± 0.071 kcal/mol	1.61 ± 0.13 kcal/mol
SAGGSAGGDEVKIEVEVKKVKVKVRVRVKNEDGEEKEVEKEFEVEVVKVKIEFKSPEEAKKLGLSAGGSAGG [r6_149_TrROS_Hall]	1.14 ± 0.088 kcal/mol	0.144 ± 0.42 kcal/mol	1.11 ± 0.27 kcal/mol
SAGGSAGGDKNAKPQPIMIAIEIYNPNGRKQEHTFPFESLDDAKEFIEDWLPPGYQVKVDIYPVSAGGSAGG [r6_290_TrROS]	0.322 ± 0.1 kcal/mol	0.709 ± 0.07 kcal/mol	0.693 ± 0.16 kcal/mol
SAGGSAGGDPGDDYKIGVFPFTFLFGGYRISIPIFRITKDGKPQHIFMAIEIEPLPPPKDPGDNSAGGSAGG [r6_684_TrROS]	3.21 ± 0.093 kcal/mol	4 ± 0.087 kcal/mol	3.71 ± 0.15 kcal/mol
SAGGSAGGDRLEVVAPVDDPVEQAREFAERLREEFRRRYPDREIDRVEVFYDPGARTLHVRLYPSAGGSAGG [r6_662_TrMRF]	2.12 ± 0.026 kcal/mol	2.704 ± 0.024 kcal/mol	2.51 ± 0.066 kcal/mol
SAGGSAGGEATEGTLIVGGKPVRVTVERTPEGGRIATVELPNGVTVVARLNPVTRGAEILEVVESAGGSAGG [r6_290_TrMRF]	0.773 ± 0.05 kcal/mol	1.45 ± 0.086 kcal/mol	1.17 ± 0.13 kcal/mol
SAGGSAGGEDKYLVVEFTVPEGKAEEFIAEVKKKIPPNWKIERVEIVEKTEDGLYRVRVVLKPGSAGGSAGG [r6_340_TrMRF]	4.5 ± 0.14 kcal/mol	4.88 ± 0.049 kcal/mol	4.87 ± 0.086 kcal/mol
SAGGSAGGEEAREAIEQELRARGINVTEIKVEEKKLTPDKTVVTFTVTARLPDSELTSTFTVVDSAGGSAGG [r6_533_JUSTAS]	0.141 ± 0.19 kcal/mol	-0.92 ± 0.81 kcal/mol	-0.173 ± 0.13 kcal/mol
SAGGSAGGEFTVTVTIEKDEEKGFIRIPISVSLPSSAFVPKTVEFLEFAKTLKENLPELEVDASSAGGSAGG [r6_102_TrMRF]	0.609 ± 0.018 kcal/mol	0.65 ± 0.075 kcal/mol	0.679 ± 0.038 kcal/mol
SAGGSAGGEIPPNIKKIETLPDDGWLMVKVDSPKDIREFFEDHGWEIKDVEEEGNTIHIPIKPKSAGGSAGG [r6_381_TrROS]	0.648 ± 0.072 kcal/mol	0.893 ± 0.24 kcal/mol	0.79 ± 0.25 kcal/mol
SAGGSAGGEKGYKLVEITIPVTVYHGNKPYTIPIPIKVKSPEEVEKLKKFIENTSYDPTSGKFSSAGGSAGG [r6_197_TrMRF]	0.607 ± 0.1 kcal/mol	1.28 ± 0.24 kcal/mol	1.02 ± 0.13 kcal/mol
SAGGSAGGEKPVVTRLELVETEEGLVRLRVELPDGELVEERRFPTLEEALAALPPGAKVEIVPLSAGGSAGG [r6_492_TrROS_Hall]	1.85 ± 0.032 kcal/mol	1.54 ± 0.01 kcal/mol	1.7 ± 0.032 kcal/mol
SAGGSAGGELEVEIVSVEFDEETKEIRIKIYVNGKLIEEKTIKIEPVKVYYKTKDGKKVSAEDLSAGGSAGG [r6_832_TrROS_Hall]	1.1 ± 0.089 kcal/mol	1.16 ± 0.26 kcal/mol	1 ± 0.19 kcal/mol
SAGGSAGGEPELNVLETLEETVDPNTGLTYTTELVQLPDGTLVTVKTLYDKATGTWTVLETTPESAGGSAGG [r6_262_JUSTAS]	2.4 ± 0.18 kcal/mol	2.07 ± 0.079 kcal/mol	2.18 ± 0.13 kcal/mol
SAGGSAGGEVEIEVTEEEEVPGLPDQEIVTKAKLPDGKTVTIKRTVDPKTGKVSVSFSVIEPPLSAGGSAGG [r6_337_JUSTAS]	0.44 ± 0.19 kcal/mol	0.355 ± 0.2 kcal/mol	0.363 ± 0.24 kcal/mol
SAGGSAGGEVKIEVNKEKGYLLITVPKEEAEEIAKALKEKFGIKEVKIEVDEETDEVHILVKLESAGGSAGG [r6_661_TrROS_Hall]	2.5 ± 0.14 kcal/mol	2.98 ± 0.12 kcal/mol	2.59 ± 0.27 kcal/mol
SAGGSAGGEVKTIEIEIEITDEDGRKYRIKMEAEVLPNGEIIIRMEIEDEETNETYEMTIVLKPSAGGSAGG [r6_726_TrROS_Hall]	3.57 ± 0.19 kcal/mol	4.55 ± 0.12 kcal/mol	4.35 ± 0.18 kcal/mol
SAGGSAGGEYELLTFTLEFEVPPEVEHVEFEAELEDFDEILEVRARPDPETGTVRVEIVARARPSAGGSAGG [r6_712_TrMRF]	1.46 ± 0.044 kcal/mol	2.62 ± 0.06 kcal/mol	2.28 ± 0.19 kcal/mol

Sequence	folding stability dG unfold [1]	folding stability dG unfold [2]	folding stability dG unfold [3]
SAGGSAGGFIEYDPKTGTITVTFPSSVSPEDVRAAIEAAGFPATPVAYSYDPSPPVRTVTFKVASAGGSAGG [r6_396_JUSTAS]	1.14 ± 0.02 kcal/mol	0.832 ± 0.11 kcal/mol	1.06 ± 0.092 kcal/mol
SAGGSAGGGAAPRTRVIEVLFPVPPDVTVEEIAERLRALYPDAVLVAEAERLPDGYVRVVVTLRSAGGSAGG [r6_566_TrMRF]	2.49 ± 0.031 kcal/mol	3.54 ± 0.078 kcal/mol	3.19 ± 0.083 kcal/mol
SAGGSAGGGGMMKTITIPLEELKAKLAKETGKPLTIEEIKEALKKEGIKLLSVDKEKGTITISESAGGSAGG [r6_767_JUSTAS]	2.4 ± 0.1 kcal/mol	1.73 ± 0.09 kcal/mol	2.16 ± 0.13 kcal/mol
SAGGSAGGGGSSMTIVDPKDVPFGQTFTVTTYAPGGKKISTTTLTVDVPPPVWRTDGNGKWFLESAGGSAGG [r6_487_JUSTAS]	0.163 ± 0.19 kcal/mol	0.28 ± 0.27 kcal/mol	0.4 ± 0.2 kcal/mol
SAGGSAGGGGVAEEVAALLKALGLKVKKIEVEVEEVPPDKKVARVKVTAELPTKKVTFELRVEVSAGGSAGG [r6_532_TrMRF]	1.97 ± 0.092 kcal/mol	3 ± 0.068 kcal/mol	2.76 ± 0.28 kcal/mol
SAGGSAGGGHMPVTKTVQLPGRTVTLTYYPEKGTVKITFPEDGTEKTVPISPSETIEDVIKKLSSAGGSAGG [r6_166_JUSTAS]	2.32 ± 0.069 kcal/mol	2.74 ± 0.036 kcal/mol	2.6 ± 0.061 kcal/mol
SAGGSAGGGIDLSNPEDIEEALKKSGIVGVFKVKIIPLPGGKWKKIIEPVKLLPKEELEKAGLISAGGSAGG [r6_402_TrMRF]	0.825 ± 0.043 kcal/mol	0.444 ± 0.12 kcal/mol	0.637 ± 0.095 kcal/mol
SAGGSAGGGIEPGKKVKAKATLILPGGKPIPFTATFTPDYVTLDLGKGSLTVPVEFIAHLEIEDSAGGSAGG [r6_132_TrMRF]	0.371 ± 0.052 kcal/mol	1.48 ± 0.079 kcal/mol	1.11 ± 0.053 kcal/mol
SAGGSAGGGKMEYDPKDGTMRWRDPANGIEHESRIEIPPIVIPADDLPKLREQFPPDMPVVLAGSAGGSAGG [r6_104_TrROS]	0.238 ± 0.034 kcal/mol	0.94 ± 0.062 kcal/mol	0.722 ± 0.043 kcal/mol
SAGGSAGGGKSFSIPVDDAVILDYDPVTKRLTILLPGPGVELVLPLDKVKRIEIDPETGTIHVESAGGSAGG [r6_313_TrMRF]	1.54 ± 0.022 kcal/mol	1.61 ± 0.02 kcal/mol	1.64 ± 0.073 kcal/mol
SAGGSAGGGMEPVTETITVPITTPEELEAVKKEAEARREKEGLVSYEISESPDGTVTITITKPVSAGGSAGG [r6_730_JUSTAS]	0.155 ± 0.1 kcal/mol	0.334 ± 0.071 kcal/mol	0.427 ± 0.34 kcal/mol
SAGGSAGGGMPISISITVTLSDGTVLEFTVTVPENAPDPASVAAALAAEIKAAHPDVAVTFTPASAGGSAGG [r6_132_JUSTAS]	0.849 ± 0.054 kcal/mol	1.72 ± 0.025 kcal/mol	1.53 ± 0.077 kcal/mol
SAGGSAGGGMVKVTLRITYYNSTGPYTSDRVFELPPDEVEALIEAIPPPPDATPEVEVEREPLGSAGGSAGG [r6_428_JUSTAS]	0.8 ± 0.042 kcal/mol	1.53 ± 0.15 kcal/mol	1.22 ± 0.14 kcal/mol
SAGGSAGGGPPGTTTTTISTPDGPVTVTVSPTSVTVTRPGSNETVTSSGSPTTTLEEIAAEIAASAGGSAGG [r6_317_JUSTAS]	2.88 ± 0.14 kcal/mol	1.58 ± 0.052 kcal/mol	2.24 ± 0.11 kcal/mol
SAGGSAGGGPPSPVQTSTTSFSVSGDSSVTNVTVVTLPDGSLLVETTVFPSSGGSVSSLSSIPASAGGSAGG [r6_670_JUSTAS]	1.27 ± 0.031 kcal/mol	0.218 ± 0.21 kcal/mol	0.855 ± 0.058 kcal/mol
SAGGSAGGGRYLVLIEFENGFPLAYVFPSPEDVVEHTRLLEERLGYPIKRIEVYKIDPNGKAYASAGGSAGG [r6_162_TrMRF]	2.41 ± 0.053 kcal/mol	2.42 ± 0.12 kcal/mol	2.53 ± 0.086 kcal/mol
SAGGSAGGGSFTLTEEPGGVLTITTPDKTLTVNLEGVTPDPNSDTTFSFTLSLDPDDSASVTSSSAGGSAGG [r6_202_JUSTAS]	1.44 ± 0.023 kcal/mol	1.43 ± 0.091 kcal/mol	1.47 ± 0.1 kcal/mol
SAGGSAGGGTVLAEEEEPETGLVRRLVRLPDGTLVESVSLVDPETGEVLSEEVLRETPLPPPGLSAGGSAGG [r6_928_JUSTAS]	0.898 ± 0.08 kcal/mol	1.41 ± 0.054 kcal/mol	1.29 ± 0.12 kcal/mol
SAGGSAGGIEITEISRSEELLKLDVPEDTLVLKVKHPDGKEIEVTFPANIPIEEAKEKAKEFVESAGGSAGG [r6_986_TrMRF]	-0.248 ± 0.079 kcal/mol	-0.176 ± 0.15 kcal/mol	-0.188 ± 0.18 kcal/mol
SAGGSAGGIKELLEALGFEVVDVEPTDNKFMIMIRNPEEGRVVVIEIEWDGPPKIEIHPMPPNASAGGSAGG [r6_195_TrROS]	2.38 ± 0.065 kcal/mol	2.11 ± 0.04 kcal/mol	2.31 ± 0.13 kcal/mol
SAGGSAGGIYIFFPPEDLEPIAPFTITIEVKRRDPDGDEPQPRKQTIPIRIYRAPNNNLMIEPGSAGGSAGG [r6_278_TrROS]	0.742 ± 0.11 kcal/mol	0.919 ± 0.19 kcal/mol	0.881 ± 0.087 kcal/mol
